From patent publication US20220228164A1, “ENGINEERED ANTIGEN PRESENTING CELLS” (Neogene Therapeutics B.V., priority 2021, published 2022)

Tested on: primary human B cells
Assay: Expansion and maintenance of BCL-6/BCL-XL/CD40L transduced primary human B cells in culture
Format: cell-based
Settings: BCL-6/BCL-xL transduced B cells, IL-21 50 ng/mL, absence of L-cells
Description: The activated, isolated B cells (FIG. 7A) were stably transduced with BCL-6/BCL-xL or a combination of BCL-6/BCL-XL and CD40L based protocols for retroviral transduction of primary B cells have been described in the literature (e.g. Kwakkenbos et al. Nat Med 2010) and as described in this invention (Example 10).
After 72 hours BCL-6/BCL-XL modified B cells were harvested, split and either cultured in the absence of L-cells or cultured on hCD40L expressing L cells. BCL-6/BCL-xL and CD40L transduced B cells are cultured in complete B cell medium supplemented with 50 ng/mL IL-21 in the absence of L-cells. […] CD40L expression on the B cells is measured on a flow cytometer using an antibody directed against CD154 (FIG. 7C).
B cells were isolated from healthy donor PBMC using the magnetic bead-based cell separation method from Miltenyi. […] Purity of the isolated B cells was measured by FACS using antibodies directed against CD3 and CD20. […] Expression of BCL6/BCL-xL was measured by FACS by GFP expression. […] Expression of BCL6/BCL-xL was measured by GFP expression and expression of CD40L was measured using an antibody directed against CD154, analyzed by FACS. […] Cells were split twice a week at a concentration of 0.2e6/mL cells and cell viability was analyzed. […] The total cumulative cell counts was calculated based on counts that were measured while splitting the cells. […]

B1: CD40L transgene: hCD40L transgene expressed in BCL-6/BCL-xL immortalized B cells (protein)
DNA: MIETYNQTSPRSAATGLPISMKIFMYLLTVFLITQMIGSALFAVYLHRRLDKIEDERNLHEDFVFMKTIQRCNTGERSLSLLNCEEIKSQFEGFVKDIMLNKEETKKENSFEMQKGDQNPQIAAHVISEASSKTTSVLQWAEKGYYTMSNNLVTLENGKQLTVKRQGLYYIYAQVTFCSNREASSQAPFIASLCLKSPGRFERILLRAANTHSSAKPCGQQSIHLGGVFELQPGASVFVNVTDPSQVSHGTGFTSFGLLKL
With B1 the “B cell expansion without CD40L-expressing feeder cells” value was “can be used as a replacement for CD40L-expressing feeder cells for expansion”.
